Data set [1] is described as follows: folding stability dG unfold from trypsin proteolysis; higher = more stable. The method, boiled down:
(§1)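 K50 was inferred by Bayesian fitting of sequencing counts obtained after protease digestion of designed mini-proteins. Unfolding free energy was derived by comparison with a sequence-predicted unfolded-state K50 and a shared folded-state K50, for each protease or both combined. The mini-proteins were under 80 residues, had no cysteine, were carried in a PA-tagged cDNA display construct, and were kept only if AlphaFold2 dimer inter-PAE exceeded 15.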

Data set [2] is described as follows: folding stability dG unfold from chymotrypsin proteolysis; higher = more stable. The method, boiled down: as §1
Data set [3] in a line: folding stability dG unfold (combined trypsin and chymotrypsin); higher = more stable. An outline of the steps:
as §1

± gives the half width of the 95% confidence interval.

Regarding “SAGGSATVEEIAKYFAEQHPGMEPKSVKLDYERNPEEGVYRIKVNITMRFDDNKKHKMPVEIQFPVSAGGSA [r15_266_TrROS]”, the “folding stability dG unfold” value in data set [1] turned out to be 0.406 ± 0.059 kcal/mol; in data set [2], 0.358 ± 0.14 kcal/mol; in data set [3], 0.433 ± 0.085 kcal/mol.
As for “SAGGSAVIVIETRADDPRLLEAIKKAREEGKPVVVRFPDGKALVFYPEGPVEEVDSPEQLKEAGFGSAGGSA [r15_94_TrMRF]”, the “folding stability dG unfold” value came out at 2.19 ± 0.033 kcal/mol in data set [1], 1.716 ± 0.011 kcal/mol in data set [2] and 1.94 ± 0.031 kcal/mol in data set [3].
The like results for “SAGGSAVPAGTTFELRYPEDEGSLTLTYDPSTNTVTITDGDKTTTYSSTSLEEVLKELGAELASRLSAGGSA [r15_500_JUSTAS]” were, in that order, 0.998 ± 0.041 kcal/mol, 1.35 ± 0.094 kcal/mol and 1.22 ± 0.09 kcal/mol.
The like results for “SAGGSAVPKLPTGVEVEPLAVIDPETASPEEIRALLAEHPGPLLVRPSSTGEWRVVPAEELLALLGSAGGSA [r15_904_JUSTAS]” were, in that order, 0.984 ± 0.034 kcal/mol, 1.19 ± 0.076 kcal/mol and 1.1 ± 0.071 kcal/mol.
In the case of “SAGGSAWPAKEIAKELNPGFPVDVEPEPVPNKDGKDMVTIEARFPNGWKIQIVFRNGKPEAIQWQKSAGGSA [r15_417_TrROS]”, the “folding stability dG unfold” value in data set [1] turned out to be 1.47 ± 0.032 kcal/mol; in data set [2] it was 2.28 ± 0.11 kcal/mol; in data set [3], 1.97 ± 0.095 kcal/mol.
The like results for “SAGGSDDPAKDIDLDIPVVVLEEEEARELARELDKPIIFRLPDGRLRVFYPDGREEEFPLPKPEELSAGGSA [r2_34_TrMRF]” were, in that order, 3.38 ± 0.066 kcal/mol, 2.65 ± 0.022 kcal/mol and 2.96 ± 0.039 kcal/mol.
On to “SAGGSDEVTIDFQVKYNGQPFTVRITIERDPPDGKIEIPVEISYPNPEMREPAREIARNIVRELLNSAGGSA [r2_259_TrROS]”, for which the “folding stability dG unfold” value was determined as 0.873 ± 0.07 kcal/mol in data set [1], 1.66 ± 0.17 kcal/mol in data set [2] and 1.32 ± 0.095 kcal/mol in data set [3].
On the same counts, the results for “SAGGSDKEHDVEIKINIYVHDDGYIHIDIEVYNPGSPRPIMKFTIHIPAKDMQKKTGRPMTLEDILSAGGSA [r2_180_TrROS]” are 1.73 ± 0.16 kcal/mol, 2.75 ± 0.074 kcal/mol and 2.38 ± 0.2 kcal/mol.
On to “SAGGSDKVVEIPIDIPNGYTVTIRMHPDDGTARVEVSPNMPPNRVLEKIKKIFDDNGYRILPIEIVSAGGSA [r2_497_TrROS]”, for which the “folding stability dG unfold” value in data set [1] worked out at 1.2 ± 0.03 kcal/mol; in data set [2], 0.796 ± 0.053 kcal/mol; in data set [3], 1.01 ± 0.077 kcal/mol.
For the sequence “SAGGSDTLKKLFPGVKEIEIEVEPYWVPMPPEMAKDNPEAPGQTFPVPRVKITIKIELPRDPDGKLSAGGSA [r2_404_TrROS]”, the “folding stability dG unfold” value turned out to be 1.09 ± 0.065 kcal/mol in data set [1], 0.324 ± 0.18 kcal/mol in data set [2] and 0.772 ± 0.12 kcal/mol in data set [3].
In the case of “SAGGSEEERKRILEELKKKNPEKDVEVKVERKTYKVPAGTVVTLPDGTKIVAPADTTVEIYKVEIIKSAGGS [r16_357_JUSTAS]”, the “folding stability dG unfold” value in data set [1] turned out to be 1.32 ± 0.068 kcal/mol; in data set [2] it was 2.14 ± 0.037 kcal/mol; in data set [3], 1.95 ± 0.2 kcal/mol.
The like results for “SAGGSEFEIIEVKDGTVVIRNKKTNELITVKVKIEVKPPPPVVVKKPGEEVTVKEGKKVTVLKEGEKKSAGG [r13_322_TrROS_Hall]” were, in that order, -0.188 ± 0.18 kcal/mol, 0.916 ± 0.13 kcal/mol and 0.498 ± 0.18 kcal/mol.
On the same counts, the results for “SAGGSEFPLRITDIHILGGYIVITFQVPPGLDKLEIKIKIELGGKPIEVTMEYTPGNGYMTMIIRLSAGGSA [r2_261_TrROS]” are 4.46 ± 0.21 kcal/mol, 5.52 ± 0.14 kcal/mol and 5.57 ± 0.31 kcal/mol.
On the same counts, the results for “SAGGSEITEEEAEKLKELFPNADITVEKVKPGETKTFPNGFRIEKTEDGYRVTVTLPNGEKLEFPVSAGGSA [r2_166_TrROS_Hall]” are 1.1 ± 0.043 kcal/mol, 1.37 ± 0.053 kcal/mol and 1.33 ± 0.11 kcal/mol.
As to “SAGGSELKPGDLVVRIEIKVEVEEVRVNENGEVEVKLRVEIRIEVRPLPPPPEPSEEELLNPDGEESAGGSA [r2_495_TrROS_Hall]”, the “folding stability dG unfold” value in data set [1] stood at 2.74 ± 0.27 kcal/mol; in data set [2], 1.89 ± 0.12 kcal/mol; in data set [3], 2.33 ± 0.27 kcal/mol.
On the same counts, the results for “SAGGSELTLTVKVTVTVEVNGKTFTVEATLTLRFRPAPPPPKVRLERDADGNLRVTDANGKTRELRFSAGGS [r16_136_TrROS_Hall]” are 2.42 ± 0.17 kcal/mol, 2.8 ± 0.1 kcal/mol and 2.61 ± 0.23 kcal/mol.
On the same counts, the results for “SAGGSEVTLKVKVRRKVFKDGKLVAEEEVEKEVRVKLPPPPKIELSPELRKALEENDLEKIKKALESAGGSA [r2_196_TrROS_Hall]” are 1.43 ± 0.066 kcal/mol, 1.74 ± 0.053 kcal/mol and 1.62 ± 0.11 kcal/mol.
“SAGGSEWQPIYEFDLPGKKIKVYMPPDGNYRIEVEKKGKPVNFWVPPNMSPSSIDNMLDQAKEQLNSAGGSA [r2_243_TrROS]”: the entries for the “folding stability dG unfold” value in data set [1], in data set [2] and in data set [3] were -0.0661 ± 0.25 kcal/mol, 0.339 ± 0.16 kcal/mol and 0.343 ± 0.26 kcal/mol, respectively.
The like results for “SAGGSFKIHWFDDPEAAEEAAKDMDPGKIIILPDPKNPKYYIVIVVKDKIFRYEIDNGNIKIEPIPSAGGSA [r2_280_TrROS]” were, in that order, 1.86 ± 0.072 kcal/mol, 2.3 ± 0.029 kcal/mol and 2.11 ± 0.08 kcal/mol.
On to “SAGGSFTSEPNPNAPPDQPETITDPSKGVTTEVYFDTEKGTVSTTTTTTGDGTPTTSTSTTAIDPAAASAGG [r13_851_JUSTAS]”, for which the “folding stability dG unfold” value in data set [1] amounted to 1.33 ± 0.15 kcal/mol; in data set [2], 1.37 ± 0.085 kcal/mol; in data set [3], 1.34 ± 0.18 kcal/mol.
The like results for “SAGGSGATYLSKYEIPLPNGKKLTIIEAYKNPETDLILYIAKTDDGTEYPFVYPSSWSPEDAIKALISSAGG [r13_470_TrMRF]” were, in that order, 2.25 ± 0.082 kcal/mol, 2.91 ± 0.034 kcal/mol and 2.69 ± 0.086 kcal/mol.
On the same counts, the results for “SAGGSGKIKEAVEAAIENPGKTVEVTVERPDGYPVKIKVDPKTGKITLEVIHPDGTTSRKEFEIKPSAGGSA [r2_263_TrMRF]” are 0.807 ± 0.071 kcal/mol, 0.669 ± 0.046 kcal/mol and 0.83 ± 0.17 kcal/mol.
As to “SAGGSGMEAKLLEEALEAELKAKGYKVEVKVTVTKSFSVQEGGLPSSTTTVTIEITVRDPKTGKKVSAGGSA [r2_434_JUSTAS]”, the “folding stability dG unfold” value in data set [1] was 1.62 ± 0.09 kcal/mol; in data set [2] it was 3.09 ± 0.1 kcal/mol; in data set [3], 2.56 ± 0.16 kcal/mol.
The like results for “SAGGSGPDVPLEEIARRIAEELGVPILSVDFERDPEAPVVTIRVTFRSPAPGRLEERTVVLPRELLSAGGSA [r2_156_JUSTAS]” were, in that order, 0.942 ± 0.035 kcal/mol, 0.759 ± 0.083 kcal/mol and 0.883 ± 0.068 kcal/mol.
As for “SAGGSGPSAPRTLTLDLPELPPGVKITVTVDFPGGRTFTGGVTERTATVDLPVPDGLEVESVTVQLESAGGS [r16_179_JUSTAS]”, the “folding stability dG unfold” value in data set [1] amounted to 0.00568 ± 0.1 kcal/mol; in data set [2], 0.00426 ± 0.16 kcal/mol; in data set [3], 0.0729 ± 0.085 kcal/mol.
On the same counts, the results for “SAGGSGTMKVEVSKDGGKLTVKSEFPSGGYGVSDDSGKLATLEYDPEKGTTTVTFPDGTVRTLTYPGSAGGS [r16_602_JUSTAS]” are 0.0159 ± 0.11 kcal/mol, 0.647 ± 0.089 kcal/mol and 0.501 ± 0.12 kcal/mol.
On the same counts, the results for “SAGGSGVPLKITKVEVVGDKVVLTFEVPESLGTLKLNLTFELGGKPVEVEAEFDPETKYAVVVVGGSAGGSA [r2_261_TrMRF]” are 2.37 ± 0.051 kcal/mol, 2.52 ± 0.061 kcal/mol and 2.49 ± 0.092 kcal/mol.
The like results for “SAGGSHEYTHEYRIPGGYAIRIKTKWRFNPGNNNIQIEEPDIELVPLPPVPPPPVPPEDADKNGIPPDDSAG [r5_393_TrROS]” were, in that order, 1.19 ± 0.019 kcal/mol, 2.29 ± 0.12 kcal/mol and 1.74 ± 0.12 kcal/mol.
Consider “SAGGSIEEIAETLRDLLAPPEYEVDVEVVEVEVDPINPRIKRVRLKATVYPPDGSSREIEFEIPFDELSAGG [r13_215_TrMRF]”, for which the “folding stability dG unfold” value was 1.68 ± 0.042 kcal/mol in data set [1], 1.77 ± 0.029 kcal/mol in data set [2] and 1.71 ± 0.062 kcal/mol in data set [3].
The like results for “SAGGSIEEILKAIPDAEKYEIDREKGIAYVTKKNTLYIVTVPRTSLPSPNGVLEPVSPISIKELPLESAGGS [r16_65_JUSTAS]” were, in that order, 0.128 ± 0.047 kcal/mol, 0.538 ± 0.1 kcal/mol and 0.447 ± 0.089 kcal/mol.
With “SAGGSIRELAKELAREFAEEHGIKEVEVKVEPYPNGWIKIEVSVEGPNGEPIGEWPIQIPIPPDQISAGGSA [r2_153_TrROS]”, the “folding stability dG unfold” value is 0.199 ± 0.071 kcal/mol in data set [1], 0.74 ± 0.018 kcal/mol in data set [2] and 0.561 ± 0.11 kcal/mol in data set [3].
“SAGGSITLPPVELPNGEKVTVTIEITPVPGAPPEERYRVTVTRTNPKTGTTETTELEVTRKGSVVTLESAGG [r13_208_JUSTAS]”: the “folding stability dG unfold” value turned out to be 2.16 ± 0.059 kcal/mol in data set [1], 1.5 ± 0.022 kcal/mol in data set [2] and 1.88 ± 0.099 kcal/mol in data set [3].
The like results for “SAGGSKAKIVEAEIVEFDPEKGKITIRIKANGKTFEIEFPPGVKKIKLKVKLENGEEKEIEITIKPSAGGSA [r2_132_TrROS_Hall]” were, in that order, 1.85 ± 0.044 kcal/mol, 3.01 ± 0.14 kcal/mol and 2.59 ± 0.16 kcal/mol.
Consider “SAGGSKEYEVKIVKIKEVKVENGKVYIKLEVEVRDKKTGKLLPSAEELAKELKKKFPNLKIEVKKPSAGGSA [r2_27_TrROS_Hall]”, for which the “folding stability dG unfold” value was 2.24 ± 0.13 kcal/mol in data set [1], 2.4 ± 0.12 kcal/mol in data set [2] and 2.42 ± 0.24 kcal/mol in data set [3].
The like results for “SAGGSKIEVKIEEENGTLTITVTVYDENGEQIAEITVTITLPAPKPPEKELVKAESPEEKEEALKQSAGGSA [r2_332_TrROS_Hall]” were, in that order, 2.25 ± 0.12 kcal/mol, 1.8 ± 0.12 kcal/mol and 1.65 ± 0.35 kcal/mol.
On the same counts, the results for “SAGGSKIKELLDAIKKAIEEGKEEVTIEVTLPNGSKIKFYPDGTIEITNKNGEKKTIKIKADDIKPSAGGSA [r2_97_TrROS_Hall]” are 2.29 ± 0.23 kcal/mol, 1.44 ± 0.1 kcal/mol and 1.99 ± 0.27 kcal/mol.

For the origin of these results see the supplement of paper PMC12764529.
